We go through 11 variants from IntAct's records for PubMed 31515488.

To fix the notation:
B1: Rab-like protein 2A (Homo sapiens), Q9UBK7 (parent)
chain: MAEDKTKPSELDQGKYDADDNVKIICLGDSAVGKSKLMERFLMDGFQPQQLSTYALTLYKHTATVDGKTILVDFWDTAGQERFQSMHASYYHKAHACIMVFDIQRKVTYRNLSTWYTELREFRPEIPCIVVANKIDDINVTQKSFNFAKKFSLPLYFVSAADGTNVVKLFNDAIRLAVSYKQNSQDFMDEIFQELENFSLEQEEEDVPDQEQSSSIETPSEEVASPHS
partner: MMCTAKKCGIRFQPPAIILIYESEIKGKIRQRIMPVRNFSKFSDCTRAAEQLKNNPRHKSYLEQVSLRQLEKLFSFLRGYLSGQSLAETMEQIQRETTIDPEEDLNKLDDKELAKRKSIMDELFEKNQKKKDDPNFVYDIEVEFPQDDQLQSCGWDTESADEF
B2: Zinc finger protein Aiolos (Homo sapiens), Q9UKT9 (parent)
chain: MEDIQTNAELKSTQEQSVPAESAAVLNDYSLTKSHEMENVDSGEGPANEDEDIGDDSMKVKDEYSERDENVLKSEPMGNAEEPEIPYSYSREYNEYENIKLERHVVSFDSSRPTSGKMNCDVCGLSCISFNVLMVHKRSHTGERPFQCNQCGASFTQKGNLLRHIKLHTGEKPFKCHLCNYACQRRDALTGHLRTHSVEKPYKCEFCGRSYKQRSSLEEHKERCRTFLQSTDPGDTASAEARHIKAEMGSERALVLDRLASNVAKRKSSMPQKFIGEKRHCFDVNYNSSYMYEKESELIQTRMMDQAINNAISYLGAEALRPLVQTPPAPTSEMVPVISSMYPIALTRAEMSNGAPQELEKKSIHLPEKSVPSERGLSPNNSGHDSTDTDSNHEERQNHIYQQNHMVLSRARNGMPLLKEVPRSYELLKPPPICPRDSVKVINKEGEVMDVYRCDHCRVLFLDYVMFTIHMGCHGFRDPFECNMCGYRSHDRYEFSSHIARGEHRALLK
partner: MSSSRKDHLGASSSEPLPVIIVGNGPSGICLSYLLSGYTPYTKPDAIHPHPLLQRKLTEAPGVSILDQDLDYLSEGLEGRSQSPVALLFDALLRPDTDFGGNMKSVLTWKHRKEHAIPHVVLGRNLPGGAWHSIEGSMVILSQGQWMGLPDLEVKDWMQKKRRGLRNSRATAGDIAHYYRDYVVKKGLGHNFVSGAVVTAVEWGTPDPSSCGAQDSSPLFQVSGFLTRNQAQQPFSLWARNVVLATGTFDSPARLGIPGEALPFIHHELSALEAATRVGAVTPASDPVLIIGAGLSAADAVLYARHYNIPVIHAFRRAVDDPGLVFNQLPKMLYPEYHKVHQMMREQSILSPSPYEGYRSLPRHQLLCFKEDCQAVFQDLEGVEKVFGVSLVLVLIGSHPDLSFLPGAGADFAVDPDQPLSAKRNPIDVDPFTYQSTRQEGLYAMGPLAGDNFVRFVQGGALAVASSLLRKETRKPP
B3: CDK5 regulatory subunit-associated protein 3 (Homo sapiens), Q96JB5 (parent)
chain: MEDHQHVPIDIQTSKLLDWLVDRRHCSLKWQSLVLTIREKINAAIQDMPESEEIAQLLSGSYIHYFHCLRILDLLKGTEASTKNIFGRYSSQRMKDWQEIIALYEKDNTYLVELSSLLVRNVNYEIPSLKKQIAKCQQLQQEYSRKEEECQAGAAEMREQFYHSCKQYGITGENVRGELLALVKDLPSQLAEIGAAAQQSLGEAIDVYQASVGFVCESPTEQVLPMLRFVQKRGNSTVYEWRTGTEPSVVERPHLEELPEQVAEDAIDWGDFGVEAVSEGTDSGISAEAAGIDWGIFPESDSKDPGGDGIDWGDDAVALQITVLEAGTQAPEGVARGPDALTLLEYTETRNQFLDELMELEIFLAQRAVELSEEADVLSVSQFQLAPAILQGQTKEKMVTMVSVLEDLIGKLTSLQLQHLFMILASPRYVDRVTEFLQQKLKQSQLLALKKELMVQKQQEALEEQAALEPKLDLLLEKTKELQKLIEADISKRYSGRPVNLMGTSL
partner: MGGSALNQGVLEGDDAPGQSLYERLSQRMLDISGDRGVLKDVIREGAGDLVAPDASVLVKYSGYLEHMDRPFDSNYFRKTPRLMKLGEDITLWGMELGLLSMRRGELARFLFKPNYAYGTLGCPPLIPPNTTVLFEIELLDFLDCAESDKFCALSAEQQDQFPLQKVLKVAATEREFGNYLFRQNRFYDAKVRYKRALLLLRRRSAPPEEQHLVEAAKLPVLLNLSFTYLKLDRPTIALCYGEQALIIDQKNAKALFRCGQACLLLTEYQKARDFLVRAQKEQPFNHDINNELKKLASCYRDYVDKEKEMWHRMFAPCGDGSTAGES
B4: Vesicle transport through interaction with t-SNAREs homolog 1B (Homo sapiens), Q9UEU0 (parent)
chain: MASSAASSEHFEKLHEIFRGLHEDLQGVPERLLGTAGTEEKKKLIRDFDEKQQEANETLAEMEEELRYAPLSFRNPMMSKLRNYRKDLAKLHREVRSTPLTATPGGRGDMKYGIYAVENEHMNRLQSQRAMLLQGTESLNRATQSIERSHRIATETDQIGSEIIEELGEQRDQLERTKSRLVNTSENLSKSRKILRSMSRKVTTNKLLLSIIILLELAILGGLVYYKFFRSH
partner: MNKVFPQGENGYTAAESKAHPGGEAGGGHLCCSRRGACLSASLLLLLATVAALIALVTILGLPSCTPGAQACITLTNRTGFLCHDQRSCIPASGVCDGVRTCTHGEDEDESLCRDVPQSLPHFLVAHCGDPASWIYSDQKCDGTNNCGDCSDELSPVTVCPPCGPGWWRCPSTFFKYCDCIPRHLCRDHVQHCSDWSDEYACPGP
B5: Low-density lipoprotein receptor class A domain-containing protein 1 (Homo sapiens), Q5T700 (parent)
chain: B4 partner
partner: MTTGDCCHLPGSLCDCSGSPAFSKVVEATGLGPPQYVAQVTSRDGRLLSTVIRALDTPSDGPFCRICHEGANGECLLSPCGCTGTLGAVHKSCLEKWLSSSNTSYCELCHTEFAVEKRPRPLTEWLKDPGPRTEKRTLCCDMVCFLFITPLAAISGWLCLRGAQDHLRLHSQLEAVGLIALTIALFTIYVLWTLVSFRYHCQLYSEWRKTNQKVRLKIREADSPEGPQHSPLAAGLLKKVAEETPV
B6: DCC-interacting protein 13-beta (Homo sapiens), Q8NEU8 (parent)
chain: MPAVDKLLLEEALQDSPQTRSLLSVFEEDAGTLTDYTNQLLQAMQRVYGAQNEMCLATQQLSKQLLAYEKQNFALGKGDEEVISTLHYFSKVVDELNLLHTELAKQLADTMVLPIIQFREKDLTEVSTLKDLFGLASNEHDLSMAKYSRLPKKKENEKVKTEVGKEVAAARRKQHLSSLQYYCALNALQYRKQMAMMEPMIGFAHGQINFFKKGAEMFSKRMDSFLSSVADMVQSIQVELEAEAEKMRVSQQELLSVDESVYTPDSDVAAPQINRNLIQKAGYLNLRNKTGLVTTTWERLYFFTQGGNLMCQPRGAVAGGLIQDLDNCSVMAVDCEDRRYCFQITTPNGKSGIILQAESRKENEEWICAINNISRQIYLTDNPEAVAIKLNQTALQAVTPITSFGKKQESSCPSQNLKNSEMENENDKIVPKATASLPEAEELIAPGTPIQFDIVLPATEFLDQNRGSRRTNPFGETEDESFPEAEDSLLQQMFIVRFLGSMAVKTDSTTEVIYEAMRQVLAARAIHNIFRMTESHLMVTSQSLRLIDPQTQVSRANFELTSVTQFAAHQENKRLVGFVIRVPESTGEESLSTYIFESNSEGEKICYAINLGKEIIEVQKDPEALAQLMLSIPLTNDGKYVLLNDQPDDDDGNPNEHRGAESEA
partner: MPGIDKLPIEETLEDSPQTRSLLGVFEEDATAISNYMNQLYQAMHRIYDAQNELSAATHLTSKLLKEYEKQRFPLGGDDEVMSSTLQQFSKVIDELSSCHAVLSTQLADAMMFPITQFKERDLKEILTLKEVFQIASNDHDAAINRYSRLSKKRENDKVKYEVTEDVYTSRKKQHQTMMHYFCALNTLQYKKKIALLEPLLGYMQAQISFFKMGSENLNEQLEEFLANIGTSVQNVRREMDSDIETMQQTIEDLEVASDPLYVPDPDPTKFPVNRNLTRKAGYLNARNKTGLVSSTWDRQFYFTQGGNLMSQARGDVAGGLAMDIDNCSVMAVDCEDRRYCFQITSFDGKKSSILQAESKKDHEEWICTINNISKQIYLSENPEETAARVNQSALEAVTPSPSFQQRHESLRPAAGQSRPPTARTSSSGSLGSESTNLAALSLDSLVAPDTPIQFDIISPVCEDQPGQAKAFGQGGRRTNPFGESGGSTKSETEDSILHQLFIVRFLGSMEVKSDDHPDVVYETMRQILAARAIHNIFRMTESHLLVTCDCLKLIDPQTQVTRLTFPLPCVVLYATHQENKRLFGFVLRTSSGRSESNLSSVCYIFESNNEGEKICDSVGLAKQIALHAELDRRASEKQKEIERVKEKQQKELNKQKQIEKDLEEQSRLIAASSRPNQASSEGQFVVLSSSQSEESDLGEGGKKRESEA
B7: Transcription factor 19 (Homo sapiens), Q9Y242 (parent)
chain: MLPCFQLLRIGGGRGGDLYTFHPPAGAGCTYRLGHRADLCDVALRPQQEPGLISGIHAELHAEPRGDDWRVSLEDHSSQGTLVNNVRLPRGHRLELSDGDLLTFGPEGPPGTSPSEFYFMFQQVRVKPQDFAAITIPRSRGEARVGAGFRPMLPSQGAPQRPLSTFSPAPKATLILNSIGSLSKLRPQPLTFSPSWGGPKSLPVPAPPGEMGTTPSAPPQRNRRKSVHRVLAELDDESEPPENPPPVLMEPRKKLRVDKAPLTPTGNRRGRPRKYPVSAPMAPPAVGGGEPCAAPCCCLPQEETVAWVQCDGCDVWFHVACVGCSIQAAREADFRCPGCRAGIQT
B8: Antiviral innate immune response effector IFIT1 (Homo sapiens), P09914 (parent)
chain: MSTNGDDHQVKDSLEQLRCHFTWELSIDDDEMPDLENRVLDQIEFLDTKYSVGIHNLLAYVKHLKGQNEEALKSLKEAENLMQEEHDNQANVRSLVTWGNFAWMYYHMGRLAEAQTYLDKVENICKKLSNPFRYRMECPEIDCEEGWALLKCGGKNYERAKACFEKVLEVDPENPESSAGYAISAYRLDGFKLATKNHKPFSLLPLRQAVRLNPDNGYIKVLLALKLQDEGQEAEGEKYIEEALANMSSQTYVFRYAAKFYRRKGSVDKALELLKKALQETPTSVLLHHQIGLCYKAQMIQIKEATKGQPRGQNREKLDKMIRSAIFHFESAVEKKPTFEVAHLDLARMYIEAGNHRKAEENFQKLLCMKPVVEETMQDIHFHYGRFQEFQKKSDVNAIIHYLKAIKIEQASLTRDKSINSLKKLVLRKLRRKALDLESLSLLGFVYKLEGNMNEALEYYERALRLAADFENSVRQGP
partner: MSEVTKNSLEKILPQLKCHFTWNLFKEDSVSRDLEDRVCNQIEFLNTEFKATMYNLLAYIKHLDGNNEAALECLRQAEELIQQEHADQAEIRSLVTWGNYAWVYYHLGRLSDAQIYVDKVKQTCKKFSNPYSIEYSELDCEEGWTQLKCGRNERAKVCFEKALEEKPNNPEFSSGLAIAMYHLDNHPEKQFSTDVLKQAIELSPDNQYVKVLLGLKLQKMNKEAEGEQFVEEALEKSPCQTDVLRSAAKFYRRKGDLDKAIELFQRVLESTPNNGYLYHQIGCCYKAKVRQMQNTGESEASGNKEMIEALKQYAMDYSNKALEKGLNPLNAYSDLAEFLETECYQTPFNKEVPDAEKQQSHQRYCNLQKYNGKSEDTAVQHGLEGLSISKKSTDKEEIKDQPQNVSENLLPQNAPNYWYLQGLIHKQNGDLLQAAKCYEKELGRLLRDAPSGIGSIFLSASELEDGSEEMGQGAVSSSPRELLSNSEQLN

Variants of B1 are the subject of one assay. The settings on record: with cep19_human CEP19, Q96LK0.
Turning to T53M, the “effect of a mutation on the interaction” value is recorded as “with no effect”.
The same measure, in the same setting: in the case of A94T it was “with no effect”.

Another assay covers variants of B2. The settings on record: with osgi1_human OSGIN1, Q9UJX0.
As for N119D, the “effect of a mutation on the interaction” value was “with no effect”.
Same read-out and setting: for A24V the value was “with no effect”.

A further assay covers variants of B3. The settings on record: with fkbp6_human FKBP6, O75344.
E173K: the “effect of a mutation on the interaction” value is on record as “with no effect”.

In another assay the parent is B4. The following applies: with lrad1_human LDLRAD1, Q5T700.
R124Q: the “effect of a mutation on the interaction” value is “with no effect”.
On the same count and under the same terms, in the case of R176H it was “with no effect”.

Variants of B5 are the subject of the next assay. The following applies: with marh2_human MARCHF2, Q9P0N8.
On to E108K, for which the “effect of a mutation on the interaction” value is “with no effect”.

A further assay covers variants of B6. The settings on record: with dp13a_human APPL1, Q9UKG1.
With K70R, the “effect of a mutation on the interaction” value is recorded as “with no effect”.

The variants in a further assay derive from B7. The following applies: with dnja3_human DNAJA3, Q96EY1.
Sequence of dnja3_human DNAJA3, Q96EY1 (Q96EY1 whole entry): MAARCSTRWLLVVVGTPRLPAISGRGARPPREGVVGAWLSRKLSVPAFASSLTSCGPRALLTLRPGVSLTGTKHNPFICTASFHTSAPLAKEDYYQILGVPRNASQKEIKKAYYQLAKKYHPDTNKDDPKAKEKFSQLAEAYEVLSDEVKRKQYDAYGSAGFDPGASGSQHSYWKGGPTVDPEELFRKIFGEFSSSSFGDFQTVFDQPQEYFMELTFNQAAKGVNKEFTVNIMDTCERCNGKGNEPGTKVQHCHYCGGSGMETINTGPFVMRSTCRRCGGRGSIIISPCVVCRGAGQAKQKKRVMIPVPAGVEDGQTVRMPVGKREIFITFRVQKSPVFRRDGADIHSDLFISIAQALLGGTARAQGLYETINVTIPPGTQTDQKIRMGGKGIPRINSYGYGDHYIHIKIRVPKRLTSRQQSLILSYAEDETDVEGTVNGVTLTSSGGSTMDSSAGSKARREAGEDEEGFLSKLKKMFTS
On to A279V, for which the “effect of a mutation on the interaction” value is “with no effect”.

Variants of B8 are the subject of another assay. The following applies: with ifit3_human IFIT3, O14879.
In the case of M453T, the “effect of a mutation on the interaction” value is “with no effect”.
